Measurements as given in FireProtDB (doi:10.1021/bi00017a003).

B1: Subtilisin-chymotrypsin inhibitor-2A, P01053 (parent)
chain: MSSVEKKPEGVNTGAGDRHNLKTEWPELVGKSVEEAKKVILQDKPEAQIIVLPVGTIVTMEYRIDRVRLFVDKLDNIAQVPRVG

Variants of: B1
Conditions: Hordeum vulgare; pH 6.3; 25 °C; GdnHCl; Fluorescence; MES 50 mM; structure 2CI2; whole UniProt chain shown

| Variant | ddG of mutation (higher = less stable) | denaturant m value | denaturant midpoint (higher = more stable) |
| --- | --- | --- | --- |
| T23G | 1.16 kcal/mol | 1.95 kcal/mol/M | 3.4 M |
| I50G | 3.52 kcal/mol | 2.13 kcal/mol/M | 2.19 M |
| V54T | 1.03 kcal/mol | 1.65 kcal/mol/M | 3.47 M |
| A78G | 1.88 kcal/mol | 2.19 kcal/mol/M | 3.03 M |
| T23A | 0.85 kcal/mol | 1.83 kcal/mol/M | 3.56 M |
| V80T | 0.38 kcal/mol | 1.63 kcal/mol/M | 3.8 M |
| I50A | 2.12 kcal/mol | 2.22 kcal/mol/M | 3.91 M |
| V83T | 1.15 kcal/mol | 1.79 kcal/mol/M | 3.41 M |
| V83A | 1.45 kcal/mol | 1.95 kcal/mol/M | 3.25 M |
| V80A | 1.51 kcal/mol | 1.92 kcal/mol/M | 3.22 M |
| V83G | 3.5 kcal/mol | 2.1 kcal/mol/M | 2.2 M |
| V54G | 2.43 kcal/mol | 2 kcal/mol/M | 2.75 M |
| T23V | 0.32 kcal/mol | 1.67 kcal/mol/M | 3.83 M |
| I50V | -0.08 kcal/mol | 1.77 kcal/mol/M | 4.04 M |
| V80G | 3.24 kcal/mol | 2.61 kcal/mol/M | 2.33 M |
